# ± gives the uncertainty stated by the source.
# Assay: abundance fitness (aPCA) (normalised: wild type 0, dead -1); higher = more abundant; growth selection in yeast, the domain comes from the species named
# Details: Homo sapiens
row,Substance,abundance fitness
1,"SAFB-like transcription modulator K53S, Q9NWH9",-0.141 ± 0.043
2,"SAFB-like transcription modulator K53T, Q9NWH9",-0.03 ± 0.084
3,"SAFB-like transcription modulator K53V, Q9NWH9",-0.184 ± 0.051
4,"SAFB-like transcription modulator K53Y, Q9NWH9",-0.517 ± 0.18
5,"SAFB-like transcription modulator L25A, Q9NWH9",-0.385 ± 0.032
6,"SAFB-like transcription modulator L25D, Q9NWH9",-0.665 ± 0.054
7,"SAFB-like transcription modulator L25E, Q9NWH9",-0.308 ± 0.1
8,"SAFB-like transcription modulator L25F, Q9NWH9",-0.312 ± 0.061
9,"SAFB-like transcription modulator L25G, Q9NWH9",-0.715 ± 0.071
10,"SAFB-like transcription modulator L25H, Q9NWH9",-0.732 ± 0.16
11,"SAFB-like transcription modulator L25I, Q9NWH9",-0.467 ± 0.11
12,"SAFB-like transcription modulator L25K, Q9NWH9",-0.407 ± 0.11
13,"SAFB-like transcription modulator L25M, Q9NWH9",-0.768 ± 0.045
14,"SAFB-like transcription modulator L25N, Q9NWH9",-0.172 ± 0.18
15,"SAFB-like transcription modulator L25P, Q9NWH9",-0.718 ± 0.071
16,"SAFB-like transcription modulator L25Q, Q9NWH9",-0.181 ± 0.31
17,"SAFB-like transcription modulator L25R, Q9NWH9",-0.663 ± 0.05
18,"SAFB-like transcription modulator L25S, Q9NWH9",-0.745 ± 0.077
19,"SAFB-like transcription modulator L25T, Q9NWH9",-0.536 ± 0.063
20,"SAFB-like transcription modulator L25V, Q9NWH9",-0.748 ± 0.061
21,"SAFB-like transcription modulator L25W, Q9NWH9",-0.219 ± 0.055
22,"SAFB-like transcription modulator L30A, Q9NWH9",-0.581 ± 0.035
23,"SAFB-like transcription modulator L30C, Q9NWH9",-0.497 ± 0.083
24,"SAFB-like transcription modulator L30D, Q9NWH9",-0.65 ± 0.083
25,"SAFB-like transcription modulator L30E, Q9NWH9",-0.6 ± 0.05
26,"SAFB-like transcription modulator L30F, Q9NWH9",-0.706 ± 0.055

row,Substance,abundance fitness
1,"SAFB-like transcription modulator L30H, Q9NWH9",-0.902 ± 0.17
2,"SAFB-like transcription modulator L30I, Q9NWH9",-0.129 ± 0.067
3,"SAFB-like transcription modulator L30K, Q9NWH9",-1.33 ± 0.27
4,"SAFB-like transcription modulator L30N, Q9NWH9",-0.267 ± 0.19
5,"SAFB-like transcription modulator L30P, Q9NWH9",-0.716 ± 0.067
6,"SAFB-like transcription modulator L30Q, Q9NWH9",-0.959 ± 0.17
7,"SAFB-like transcription modulator L30R, Q9NWH9",-0.949 ± 0.056
8,"SAFB-like transcription modulator L30S, Q9NWH9",-0.776 ± 0.058
9,"SAFB-like transcription modulator L30T, Q9NWH9",-0.936 ± 0.11
10,"SAFB-like transcription modulator L30V, Q9NWH9",-0.295 ± 0.05
11,"SAFB-like transcription modulator L30W, Q9NWH9",-0.748 ± 0.098
12,"SAFB-like transcription modulator L30Y, Q9NWH9",-1 ± 0.13
13,"SAFB-like transcription modulator L34A, Q9NWH9",-0.767 ± 0.092
14,"SAFB-like transcription modulator L34C, Q9NWH9",-0.496 ± 0.1
15,"SAFB-like transcription modulator L34D, Q9NWH9",-0.414 ± 0.12
16,"SAFB-like transcription modulator L34E, Q9NWH9",-0.594 ± 0.087
17,"SAFB-like transcription modulator L34F, Q9NWH9",-0.945 ± 0.2
18,"SAFB-like transcription modulator L34G, Q9NWH9",-0.829 ± 0.043
19,"SAFB-like transcription modulator L34H, Q9NWH9",-0.465 ± 0.38
20,"SAFB-like transcription modulator L34I, Q9NWH9",-1 ± 0.31
21,"SAFB-like transcription modulator L34K, Q9NWH9",-0.864 ± 0.078
22,"SAFB-like transcription modulator L34M, Q9NWH9",-0.678 ± 0.1
23,"SAFB-like transcription modulator L34N, Q9NWH9",-0.964 ± 0.45
24,"SAFB-like transcription modulator L34P, Q9NWH9",-0.8 ± 0.084
25,"SAFB-like transcription modulator L34Q, Q9NWH9",-0.673 ± 0.057
26,"SAFB-like transcription modulator L34R, Q9NWH9",-0.969 ± 0.069
